Measured values: article doi:10.1101/2024.09.27.615443 (bioRxiv, 2024)

Biological target: recombinant TGF-β1/GARP (Homo sapiens, UniProt P01137;Q14392)
Test: ELISA

recombinant TGF-β1/GARP, sequence (P01137 30-390, chain 1 of 2): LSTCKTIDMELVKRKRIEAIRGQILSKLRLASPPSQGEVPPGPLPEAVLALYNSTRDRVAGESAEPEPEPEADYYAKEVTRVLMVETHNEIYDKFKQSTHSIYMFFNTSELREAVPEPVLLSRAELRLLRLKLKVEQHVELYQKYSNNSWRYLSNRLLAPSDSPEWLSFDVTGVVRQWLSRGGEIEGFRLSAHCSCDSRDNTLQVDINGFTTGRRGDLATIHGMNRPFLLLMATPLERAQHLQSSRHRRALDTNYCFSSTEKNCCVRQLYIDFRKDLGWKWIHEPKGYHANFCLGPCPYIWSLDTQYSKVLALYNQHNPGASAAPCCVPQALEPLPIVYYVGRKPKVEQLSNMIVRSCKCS
recombinant TGF-β1/GARP, sequence (Q14392 20-662, chain 2 of 2): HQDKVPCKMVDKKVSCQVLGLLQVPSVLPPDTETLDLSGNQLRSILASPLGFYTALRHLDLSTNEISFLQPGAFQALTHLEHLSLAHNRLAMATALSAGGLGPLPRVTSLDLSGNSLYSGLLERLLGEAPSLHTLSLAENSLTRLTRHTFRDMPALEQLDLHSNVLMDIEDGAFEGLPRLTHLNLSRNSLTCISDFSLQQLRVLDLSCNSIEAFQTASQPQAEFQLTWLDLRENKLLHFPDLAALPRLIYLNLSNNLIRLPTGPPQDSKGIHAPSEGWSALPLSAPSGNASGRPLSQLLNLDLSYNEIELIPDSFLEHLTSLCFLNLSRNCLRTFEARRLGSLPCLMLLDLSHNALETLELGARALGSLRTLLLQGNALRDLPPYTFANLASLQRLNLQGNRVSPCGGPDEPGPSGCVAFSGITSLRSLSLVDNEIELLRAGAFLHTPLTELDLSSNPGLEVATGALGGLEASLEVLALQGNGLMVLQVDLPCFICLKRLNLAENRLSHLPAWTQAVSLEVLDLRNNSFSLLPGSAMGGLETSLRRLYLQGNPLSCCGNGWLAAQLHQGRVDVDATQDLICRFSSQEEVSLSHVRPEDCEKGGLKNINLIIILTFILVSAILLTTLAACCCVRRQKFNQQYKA

binding result: binds
B1: monoclonal antibody clone 28G11 (antibody, V domains shown)
VH: EVKLVESGGGLVQPGGSLSLSCAASGFTFTDYYMSWVRQPPGKALEWLGFIRNKPNGYTTEYSASVKGRFTISRDNSQSILYLQMNVLRAEDSATYYCARYTGGGYFDYWGQGTTLTVSS
VL: DIQMTQTTSSLSASLGDRLTISCRASQDISNYLNWYQQKPDGTVKLLIYYTSRLHSGVPSRFSGSGSGTDYSLTISNLEQADIATYFCQQGDTLPWTFGGGTKLEIK
